{
  "source": "patent EP2103936A1",
  "about": "(Institut Pasteur, dated 2009)",
  "target": "maltose binding protein MalE from E. coli (Escherichia coli, UniProt P0AEX9 27-396 = MBP)",
  "note": "Where “and” joins values, the source holds several entries; their conditions need not be identical. Equal entries are not always repeated.",
  "data": [
    {"binder": "DarpOff7(wt) (designed binder) MRGSHHHHHHGSDLGRKLLEAARAGQDDEVRILMANGADVNAADNTGTTPLHLAAYSGHLEIVEVLLKHGADVDASDVFGYTPLHLAAYWGHLEIVEVLLKNGADVNAMDSDGMTPLHLAAKWGYLEIVEVLLKHGADVNAQDKFGKTAFDISIDNGNEDLAEILQKLN", "values": [
      {"measurement": "Kd", "result": "11 nM and 5.6 nM"}
    ]}
  ]
}
